Target: T1, MUC16 on OVCAR-3 cells (human, UniProt Q8WXI7 1-14507)
T1 construct: whole, on cells; also called Mucin 16
Assay: FACS binding to OVCAR-3 cells

binding result: binds
B1: BSMUC16/CD3-001 (bispecific antibody, V domains shown)
VH 1: QVQLVESGGGLVKPGGSLRLSCAASGFTFSNYYMSWVRQAPGKGLEWISYISGRGSTIFYADSVKGRITISRDNAKNSLFLQMNSLRAEDTAVYFCVKDRGGYSPYWGQGTLVTVSS
VH 2: EVQLVESGGGLVQPGRSLRLSCAASGFTFDDYSMHWVRQAPGKGLEWVSGISWNSGSKGYADSVKGRFTISRDNAKNSLYLQMNSLRAEDTALYYCAKYGSGYGKFYHYGLDVWGQGTTVTVSS
VL: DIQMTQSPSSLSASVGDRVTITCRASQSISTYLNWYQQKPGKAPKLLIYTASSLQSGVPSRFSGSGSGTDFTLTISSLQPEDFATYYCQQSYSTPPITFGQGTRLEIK
notes: It was biotinylated in the ELISA and DFO/89Zr-labelled at Gln 295 for PET; also called anti-MUC16xCD3 bispecific antibody; BSMUC16/CD3-0001
